According to patent publication US20250264433A1 (STATE OF ISRAEL MINISTRY OF AGRICULTURE AND RURAL …, published 2025):

Biological target: Native EspB of wild-type EPEC O127:H6 strain E2348/69
Sequence (Q05129 whole entry): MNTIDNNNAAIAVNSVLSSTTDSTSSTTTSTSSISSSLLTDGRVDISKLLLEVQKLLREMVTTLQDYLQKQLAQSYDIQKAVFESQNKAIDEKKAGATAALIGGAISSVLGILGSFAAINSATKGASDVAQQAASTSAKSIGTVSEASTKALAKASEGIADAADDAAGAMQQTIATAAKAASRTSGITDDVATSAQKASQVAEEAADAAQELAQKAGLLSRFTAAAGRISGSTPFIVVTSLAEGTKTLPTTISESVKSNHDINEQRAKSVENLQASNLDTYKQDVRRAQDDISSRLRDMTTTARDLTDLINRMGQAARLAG

B1: mAb-EspB-B7 (antibody, V domains shown)
VH: EVQLLESGGGLVQPGGSLRLSCAASGFTFSHYAMNWVRQAPGKGLEWVSAINSNGDSTYYPDTVKDRFTISRDNSKNTLYLQMNSLRAEDTAVYYCARDRRAGYFDYWGQGTLVTVSS
VL: DIVLTQPPSASGTPGQRVTISCSGSRDNIGKNYVSWYQQLPGTAPKLLIYRNNQRPSGVPDRFSGSKSGTSASLAISGLRSEDEADYYCSAWDTSLNAYVFGPGTQLTVL
notes: also called mAb-B7; anti-EspB antibody
  signal for EPEC WT relative to the ΔespB strain: 36%
